Source: publication PMC3282181
Changes are numbered by the printed parent chain. Read-outs that look alike come from different tables or passages of the source.

Tests used:
TIA-Mut3 [1] = target: T1, TIA-Mut3 (Homo sapiens, UniProt P31483-2 1-274, Y206A;F242A); assay: ITC
T1 sequence: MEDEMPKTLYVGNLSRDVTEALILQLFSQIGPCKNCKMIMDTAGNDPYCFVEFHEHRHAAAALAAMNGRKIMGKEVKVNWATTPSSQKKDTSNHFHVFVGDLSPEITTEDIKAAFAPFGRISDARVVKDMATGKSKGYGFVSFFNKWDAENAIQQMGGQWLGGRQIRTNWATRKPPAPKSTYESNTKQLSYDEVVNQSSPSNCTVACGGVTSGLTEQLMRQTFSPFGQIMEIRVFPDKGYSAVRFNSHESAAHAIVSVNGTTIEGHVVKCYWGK

wtTIA-RRM123 [2] = target: T2, wtTIA-RRM123 (Homo sapiens, UniProt P31483-2 1-274); assay: ITC
T2 sequence: T1 sequence with A206Y, A242F

TIA-Mut3 [3] = target: T1, TIA-Mut3; assay: ITC; remark: listed apart in the source
wtTIA-RRM123 [4] = target: T2, wtTIA-RRM123; assay: ITC; remark: listed apart in the source
wtTIA-RRM123 [5] = target: T2, wtTIA-RRM123; assay: ITC; remark: listed apart in the source
wtTIA-RRM123 [6] = target: T2, wtTIA-RRM123; assay: EMSA

B1: U20 RNA (ssRNA)
RNA: UUUUUUUUUUUUUUUUUUUU
Kd (TIA-Mut3 [1]): 14.4 ± 6.1 nM
Kd (wtTIA-RRM123 [2]): 620 ± 70 nM
Kd (TIA-Mut3 [3]): 1270 ± 60 nM
Kd (wtTIA-RRM123 [4]): 0.5 ± 0.1 nM
Kd (wtTIA-RRM123 [5]): 240 ± 10 nM

B2: tnf-a ARE RNA (11 nt) (ssRNA)
RNA: UUAUUUAUUUA
binding result (wtTIA-RRM123 [6]): binds
